From patent US20260055205A1 (published 2026)

B1: CD3.201 (bispecific antibody, V domains shown)
VH: EVQLLESGGGIVQPGGSLRLSCAASGFTFNTYAMNWVRQAPGKGLEWVGRIRSKRNNYATYYADSVKGRFTISRDDSKNTVYLQMNSLKTEDTAVYYCVRHENFGNSYVSWFAHWGQGTLVTVSS
VL: ELVVTQEPSLTVSPGGTVTLTCRSSNGAVTSSNYANWVQQKPGQAPRGLIGGTNKRAPGTPARFSGSLLGGKAALTLSGVQPEDEAVYYCALWYPNLWVFGGGTKLTVL
notes: paTCE with PSMA.262; also called AC3632
B2: CD3.202 (bispecific antibody, V domains shown)
VH: EVQLVESGGGIVQPGGSLRLSCAASGFTFNTYAMNWVRQAPGKGLEWVGRIRSKRNNYATYYADSVKGRFTISRDDSKNTVYLQMNSLKTEDTAVYYCVRHENFGNSYVSWFAHWGQGTLVTVSS
VL: ELVVTQEPSLTVSPGGTVTLTCRSSNGAVTSSNYANWVQQKPGQAPRGLIGGTNKRAPGTPARFSGSLLGGKAALTLSGVQPEDEAVYYCALWYPNLWVFGGGTKLTVL
notes: paTCE with PSMA.262; also called AC3633
B3: CD3.204 (bispecific antibody, V domains shown)
VH: EVQLVESGGGIVQPGGSLRLSCAASGFTFNTYAMNWVRQAPGKGLEWVGRIRSKTNNYATYYADSVKGRFTISRDDSKNTVYLQMNSLKTEDTAVYYCVRHENFGNSYVSWFAHWGQGTLVTVSS
VL: ELVVTQEPSLTVSPGGTVTLTCRSSNGAVTSSNYANWVQQKPGQAPRGLIGGTNKRAPGTPARFSGSLLGGKAALTLSGVQPEDEAVYYCALWYPNLWVFGGGTKLTVL
notes: paTCE with PSMA.262; also called AC3635
B4: CD3.205 (bispecific antibody, V domains shown)
VH: EVQLLESGGGIVQPGGSLRLSCAASGFTFNTYAMNWVRQAPGKGLEWVGRIRSKYNDYATYYADSVKGRFTISRDDSKNTVYLQMNSLKTEDTAVYYCVRHENFGNSYVSWFAHWGQGTLVTVSS
VL: ELVVTQEPSLTVSPGGTVTLTCRSSNGAVTSSNYANWVQQKPGQAPRGLIGGTNKRAPGTPARFSGSLLGGKAALTLSGVQPEDEAVYYCALWYPNLWVFGGGTKLTVL
notes: paTCE with PSMA.262; also called AC3636
B5: CD3.206 (bispecific antibody, V domains shown)
VH: EVQLVESGGGIVQPGGSLRLSCAASGFTFNTYAMNWVRQAPGKGLEWVGRIRSKYNDYATYYADSVKGRFTISRDDSKNTVYLQMNSLKTEDTAVYYCVRHENFGNSYVSWFAHWGQGTLVTVSS
VL: ELVVTQEPSLTVSPGGTVTLTCRSSNGAVTSSNYANWVQQKPGQAPRGLIGGTNKRAPGTPARFSGSLLGGKAALTLSGVQPEDEAVYYCALWYPNLWVFGGGTKLTVL
notes: paTCE with PSMA.262; also called AC3637
B6: CD3.207 (bispecific antibody, V domains shown)
VH: EVQLLESGGGIVQPGGSLRLSCAASGFTFNTYAMNWVRQAPGKGLEWVGRIRSKYNNYATTYADSVKGRFTISRDDSKNTVYLQMNSLKTEDTAVYYCVRHENFGNSYVSWFAHWGQGTLVTVSS
VL: ELVVTQEPSLTVSPGGTVTLTCRSSNGAVTSSNYANWVQQKPGQAPRGLIGGTNKRAPGTPARFSGSLLGGKAALTLSGVQPEDEAVYYCALWYPNLWVFGGGTKLTVL
notes: paTCE with PSMA.262; also called AC3638
B7: CD3.208 (bispecific antibody, V domains shown)
VH: EVQLVESGGGIVQPGGSLRLSCAASGFTFNTYAMNWVRQAPGKGLEWVGRIRSKYNNYATTYADSVKGRFTISRDDSKNTVYLQMNSLKTEDTAVYYCVRHENFGNSYVSWFAHWGQGTLVTVSS
VL: ELVVTQEPSLTVSPGGTVTLTCRSSNGAVTSSNYANWVQQKPGQAPRGLIGGTNKRAPGTPARFSGSLLGGKAALTLSGVQPEDEAVYYCALWYPNLWVFGGGTKLTVL
notes: paTCE with PSMA.262; also called AC3639
B8: CD3.209 (bispecific antibody, V domains shown)
VH: EVQLVESGGGIVQPGGSLRLSCAASGFTFNTYAMNWVRQAPGKGLEWVGRIRSKRNNYATYYADSVKGRFTISRDDSKNTVYLQMNELKTEDTAVYYCVRHENFGNSYVSWFAHWGQGTLVTVSS
VL: ELVVTQEPSLTVSPGGTVTLTCRSSNGAVTSSNYANWVQQKPGQAPRGLIGGTNKRAPGTPARFSGSLLGGKAALTLSGVQPEDEAVYYCALWYPNLWVFGGGTKLTVL
notes: paTCE with PSMA.262; also called AC3640
B9: CD3.210 (bispecific antibody, V domains shown)
VH: EVQLVESGGGIVQPGGSLRLSCAASGFTFSTYAMNWVRQAPGKGLEWVGRIRSKRNNYATYYADSVKGRFTISRDDSKNTVYLQMNELKTEDTAVYYCVRHENFGNSYVSWFAHWGQGTLVTVSS
VL: ELVVTQEPSLTVSPGGTVTLTCRSSNGAVTSSNYANWVQQKPGQAPRGLIGGTNKRAPGTPARFSGSLLGGKAALTLSGVQPEDEAVYYCALWYPNLWVFGGGTKLTVL
notes: paTCE with PSMA.262; also called AC3641
B10: CD3.211 (bispecific antibody, V domains shown)
VH: EVQLVESGGGIVQPGGSLRLSCAASGFTFNTYAMNWVRQAPGKGLEWVGRIRSKTNNYATYYADSVKGRFTISRDDSKNTVYLQMNELKTEDTAVYYCVRHENFGNSYVSWFAHWGQGTLVTVSS
VL: ELVVTQEPSLTVSPGGTVTLTCRSSNGAVTSSNYANWVQQKPGQAPRGLIGGTNKRAPGTPARFSGSLLGGKAALTLSGVQPEDEAVYYCALWYPNLWVFGGGTKLTVL
notes: paTCE with PSMA.262; also called AC3642
B11: CD3.212 (bispecific antibody, V domains shown)
VH: EVQLVESGGGIVQPGGSLRLSCAASGFTFSTYAMNWVRQAPGKGLEWVGRIRSKTNNYATYYADSVKGRFTISRDDSKNTVYLQMNELKTEDTAVYYCVRHENFGNSYVSWFAHWGQGTLVTVSS
VL: ELVVTQEPSLTVSPGGTVTLTCRSSNGAVTSSNYANWVQQKPGQAPRGLIGGTNKRAPGTPARFSGSLLGGKAALTLSGVQPEDEAVYYCALWYPNLWVFGGGTKLTVL
notes: paTCE with PSMA.262; also called AC3643
B12: CD3.213 (bispecific antibody, V domains shown)
VH: EVQLVESGGGIVQPGGSLRLSCAASGFTFNTYAMNWVRQAPGKGLEWVGRIRSKYNDYATYYADSVKGRFTISRDDSKNTVYLQMNELKTEDTAVYYCVRHENFGNSYVSWFAHWGQGTLVTVSS
VL: ELVVTQEPSLTVSPGGTVTLTCRSSNGAVTSSNYANWVQQKPGQAPRGLIGGTNKRAPGTPARFSGSLLGGKAALTLSGVQPEDEAVYYCALWYPNLWVFGGGTKLTVL
notes: paTCE with PSMA.262; also called AC3644
B13: CD3.214 (bispecific antibody, V domains shown)
VH: EVQLVESGGGIVQPGGSLRLSCAASGFTFSTYAMNWVRQAPGKGLEWVGRIRSKYNDYATYYADSVKGRFTISRDDSKNTVYLQMNELKTEDTAVYYCVRHENFGNSYVSWFAHWGQGTLVTVSS
VL: ELVVTQEPSLTVSPGGTVTLTCRSSNGAVTSSNYANWVQQKPGQAPRGLIGGTNKRAPGTPARFSGSLLGGKAALTLSGVQPEDEAVYYCALWYPNLWVFGGGTKLTVL
notes: paTCE with PSMA.262; also called AC3645
B14: CD3.215 (bispecific antibody, V domains shown)
VH: EVQLVESGGGIVQPGGSLRLSCAASGFTFSTYAMNWVRQAPGKGLEWVGRIRSKRNNYATYYADSVKGRFTISRDDSKNTVYLQMNSLKTEDTAVYYCVRHENFGNSYVSWFAHWGQGTLVTVSS
VL: ELVVTQEPSLTVSPGGTVTLTCRSSNGAVTSSNYANWVQQKPGQAPRGLIGGTNKRAPGTPARFSGSLLGGKAALTLSGVQPEDEAVYYCALWYPNLWVFGGGTKLTVL
notes: paTCE with PSMA.262; also called AC3646
B15: CD3.216 (bispecific antibody, V domains shown)
VH: EVQLVESGGGIVQPGGSLRLSCAASGFTFSTYAMNWVRQAPGKGLEWVGRIRSKTNNYATYYADSVKGRFTISRDDSKNTVYLQMNSLKTEDTAVYYCVRHENFGNSYVSWFAHWGQGTLVTVSS
VL: ELVVTQEPSLTVSPGGTVTLTCRSSNGAVTSSNYANWVQQKPGQAPRGLIGGTNKRAPGTPARFSGSLLGGKAALTLSGVQPEDEAVYYCALWYPNLWVFGGGTKLTVL
notes: paTCE with PSMA.262; also called AC3647
B16: CD3.217 (bispecific antibody, V domains shown)
VH: EVQLVESGGGIVQPGGSLRLSCAASGFTFSTYAMNWVRQAPGKGLEWVGRIRSKYNDYATYYADSVKGRFTISRDDSKNTVYLQMNSLKTEDTAVYYCVRHENFGNSYVSWFAHWGQGTLVTVSS
VL: ELVVTQEPSLTVSPGGTVTLTCRSSNGAVTSSNYANWVQQKPGQAPRGLIGGTNKRAPGTPARFSGSLLGGKAALTLSGVQPEDEAVYYCALWYPNLWVFGGGTKLTVL
notes: paTCE with PSMA.262; also called AC3648
B17: CD3.218 (bispecific antibody, V domains shown)
VH: EVQLVESGGGIVQPGGSLRLSCAASGFTFSTYAMNWVRQAPGKGLEWVGRIRSKYNNYATTYADSVKGRFTISRDDSKNTVYLQMNSLKTEDTAVYYCVRHENFGNSYVSWFAHWGQGTLVTVSS
VL: ELVVTQEPSLTVSPGGTVTLTCRSSNGAVTSSNYANWVQQKPGQAPRGLIGGTNKRAPGTPARFSGSLLGGKAALTLSGVQPEDEAVYYCALWYPNLWVFGGGTKLTVL
notes: paTCE with PSMA.262; also called AC3649
B18: CD3.219 (bispecific antibody, V domains shown)
VH: EVQLVESGGGIVQPGGSLRLSCAASGFTFNTYAMNWVRQAPGKGLEWVGRIRTKRNNYATYYADSVKGRFTISRDDSKNTVYLQMNELKTEDTAVYYCVRHENFGNSYVSWFAHWGQGTLVTVSS
VL: ELVVTQEPSLTVSPGGTVTLTCRSSNGAVTSSNYANWVQQKPGQAPRGLIGGTNKRAPGTPARFSGSLLGGKAALTLSGVQPEDEAVYYCALWYPNLWVFGGGTKLTVL
notes: paTCE with PSMA.262; also called AC3650
B19: CD3.220 (bispecific antibody, V domains shown)
VH: EVQLVESGGGIVQPGGSLRLSCAASGFTFSTYAMNWVRQAPGKGLEWVGRIRTKRNNYATYYADSVKGRFTISRDDSKNTVYLQMNELKTEDTAVYYCVRHENFGNSYVSWFAHWGQGTLVTVSS
VL: ELVVTQEPSLTVSPGGTVTLTCRSSNGAVTSSNYANWVQQKPGQAPRGLIGGTNKRAPGTPARFSGSLLGGKAALTLSGVQPEDEAVYYCALWYPNLWVFGGGTKLTVL
notes: paTCE with PSMA.262; also called AC3651
B20: CD3.221 (bispecific antibody, V domains shown)
VH: EVQLVESGGGIVQPGGSLRLSCAASGFTFNTYAMNWVRQAPGKGLEWVGRIRTKTNNYATYYADSVKGRFTISRDDSKNTVYLQMNELKTEDTAVYYCVRHENFGNSYVSWFAHWGQGTLVTVSS
VL: ELVVTQEPSLTVSPGGTVTLTCRSSNGAVTSSNYANWVQQKPGQAPRGLIGGTNKRAPGTPARFSGSLLGGKAALTLSGVQPEDEAVYYCALWYPNLWVFGGGTKLTVL
notes: paTCE with PSMA.262; also called AC3652
B21: CD3.222 (bispecific antibody, V domains shown)
VH: EVQLVESGGGIVQPGGSLRLSCAASGFTFSTYAMNWVRQAPGKGLEWVGRIRTKTNNYATYYADSVKGRFTISRDDSKNTVYLQMNELKTEDTAVYYCVRHENFGNSYVSWFAHWGQGTLVTVSS
VL: ELVVTQEPSLTVSPGGTVTLTCRSSNGAVTSSNYANWVQQKPGQAPRGLIGGTNKRAPGTPARFSGSLLGGKAALTLSGVQPEDEAVYYCALWYPNLWVFGGGTKLTVL
notes: paTCE with PSMA.262; also called AC3653

These binders were tested against T1, human CD3 epsilon (human, UniProt P07766 23-126, limits assumed) (assay: Octet, crude lysate).
T1 construct: also called huCD3e
T1 sequence (P07766 23-126 limits assumed): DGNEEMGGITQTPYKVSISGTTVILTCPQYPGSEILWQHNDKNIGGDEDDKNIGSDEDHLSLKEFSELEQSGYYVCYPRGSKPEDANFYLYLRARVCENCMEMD
Method: Pool 2 consisted of paTCE molecules each containing PSMA.262 and one of 64 CD3.23 mutation combination variants. Stability and affinity of the individually expressed molecules in the form of crude lysate was evaluated by Octet. […] The binding of these anti-CD3 molecules (CD3.227, CD3.228, CD3.229 and CD3.230) to human and cynomolgus CD3 was measured by Octet and the Tm was measured by Differential Scanning Fluorimetry. All variants were paired with PSMA.262 except for CD3.23 which was paired with PSMA.5.

In order of rising Kd:
1. B18  4.7 nM
2. B19  4.8 nM
3. B8  5.6 nM
4. B9  5.7 nM
5. B12  6.6 nM
6. B13  6.6 nM
7. B3  7.2 nM
8. B4  7.2 nM
9. B2  8.4 nM
10. B1  8.6 nM
11. B10  9.5 nM
12. B14  9.7 nM
13. B5  10.3 nM
14. B16  10.7 nM
15. B21  10.8 nM
16. B15  11.2 nM
17. B20  11.7 nM
18. B6  15.6 nM
19. B7  16.8 nM
20. B11  35.6 nM
21. B17  52.6 nM
